Results taken from patent US20110190196A1 (University of California, published 2011).
Read-outs that look alike come from different tables or passages of the source.

Experiments:
Assay in all cases: cell-based or functional assay
[1] = molecular target: T1, ATP-binding cassette transporter A1 (ABCA1) (UniProt P41233 1-2261, limits assumed)
[2] = molecular target: T1, ATP-binding cassette transporter A1 …; remark: listed apart in the source
[3] = molecular target: T1, ATP-binding cassette transporter A1 …; remark: listed apart in the source
[4] = molecular target: T1, ATP-binding cassette transporter A1 …; remark: listed apart in the source
[5] = molecular target: T1, ATP-binding cassette transporter A1 …; remark: listed apart in the source
[6] = molecular target: T1, ATP-binding cassette transporter A1 …; remark: listed apart in the source
[7] = molecular target: T1, ATP-binding cassette transporter A1 …; remark: listed apart in the source
[8] = molecular target: T1, ATP-binding cassette transporter A1 …; remark: listed apart in the source
[9] = molecular target: T1, ATP-binding cassette transporter A1 …; remark: listed apart in the source
[10] = molecular target: T1, ATP-binding cassette transporter A1 …; remark: listed apart in the source

T1 sequence (P41233 whole entry): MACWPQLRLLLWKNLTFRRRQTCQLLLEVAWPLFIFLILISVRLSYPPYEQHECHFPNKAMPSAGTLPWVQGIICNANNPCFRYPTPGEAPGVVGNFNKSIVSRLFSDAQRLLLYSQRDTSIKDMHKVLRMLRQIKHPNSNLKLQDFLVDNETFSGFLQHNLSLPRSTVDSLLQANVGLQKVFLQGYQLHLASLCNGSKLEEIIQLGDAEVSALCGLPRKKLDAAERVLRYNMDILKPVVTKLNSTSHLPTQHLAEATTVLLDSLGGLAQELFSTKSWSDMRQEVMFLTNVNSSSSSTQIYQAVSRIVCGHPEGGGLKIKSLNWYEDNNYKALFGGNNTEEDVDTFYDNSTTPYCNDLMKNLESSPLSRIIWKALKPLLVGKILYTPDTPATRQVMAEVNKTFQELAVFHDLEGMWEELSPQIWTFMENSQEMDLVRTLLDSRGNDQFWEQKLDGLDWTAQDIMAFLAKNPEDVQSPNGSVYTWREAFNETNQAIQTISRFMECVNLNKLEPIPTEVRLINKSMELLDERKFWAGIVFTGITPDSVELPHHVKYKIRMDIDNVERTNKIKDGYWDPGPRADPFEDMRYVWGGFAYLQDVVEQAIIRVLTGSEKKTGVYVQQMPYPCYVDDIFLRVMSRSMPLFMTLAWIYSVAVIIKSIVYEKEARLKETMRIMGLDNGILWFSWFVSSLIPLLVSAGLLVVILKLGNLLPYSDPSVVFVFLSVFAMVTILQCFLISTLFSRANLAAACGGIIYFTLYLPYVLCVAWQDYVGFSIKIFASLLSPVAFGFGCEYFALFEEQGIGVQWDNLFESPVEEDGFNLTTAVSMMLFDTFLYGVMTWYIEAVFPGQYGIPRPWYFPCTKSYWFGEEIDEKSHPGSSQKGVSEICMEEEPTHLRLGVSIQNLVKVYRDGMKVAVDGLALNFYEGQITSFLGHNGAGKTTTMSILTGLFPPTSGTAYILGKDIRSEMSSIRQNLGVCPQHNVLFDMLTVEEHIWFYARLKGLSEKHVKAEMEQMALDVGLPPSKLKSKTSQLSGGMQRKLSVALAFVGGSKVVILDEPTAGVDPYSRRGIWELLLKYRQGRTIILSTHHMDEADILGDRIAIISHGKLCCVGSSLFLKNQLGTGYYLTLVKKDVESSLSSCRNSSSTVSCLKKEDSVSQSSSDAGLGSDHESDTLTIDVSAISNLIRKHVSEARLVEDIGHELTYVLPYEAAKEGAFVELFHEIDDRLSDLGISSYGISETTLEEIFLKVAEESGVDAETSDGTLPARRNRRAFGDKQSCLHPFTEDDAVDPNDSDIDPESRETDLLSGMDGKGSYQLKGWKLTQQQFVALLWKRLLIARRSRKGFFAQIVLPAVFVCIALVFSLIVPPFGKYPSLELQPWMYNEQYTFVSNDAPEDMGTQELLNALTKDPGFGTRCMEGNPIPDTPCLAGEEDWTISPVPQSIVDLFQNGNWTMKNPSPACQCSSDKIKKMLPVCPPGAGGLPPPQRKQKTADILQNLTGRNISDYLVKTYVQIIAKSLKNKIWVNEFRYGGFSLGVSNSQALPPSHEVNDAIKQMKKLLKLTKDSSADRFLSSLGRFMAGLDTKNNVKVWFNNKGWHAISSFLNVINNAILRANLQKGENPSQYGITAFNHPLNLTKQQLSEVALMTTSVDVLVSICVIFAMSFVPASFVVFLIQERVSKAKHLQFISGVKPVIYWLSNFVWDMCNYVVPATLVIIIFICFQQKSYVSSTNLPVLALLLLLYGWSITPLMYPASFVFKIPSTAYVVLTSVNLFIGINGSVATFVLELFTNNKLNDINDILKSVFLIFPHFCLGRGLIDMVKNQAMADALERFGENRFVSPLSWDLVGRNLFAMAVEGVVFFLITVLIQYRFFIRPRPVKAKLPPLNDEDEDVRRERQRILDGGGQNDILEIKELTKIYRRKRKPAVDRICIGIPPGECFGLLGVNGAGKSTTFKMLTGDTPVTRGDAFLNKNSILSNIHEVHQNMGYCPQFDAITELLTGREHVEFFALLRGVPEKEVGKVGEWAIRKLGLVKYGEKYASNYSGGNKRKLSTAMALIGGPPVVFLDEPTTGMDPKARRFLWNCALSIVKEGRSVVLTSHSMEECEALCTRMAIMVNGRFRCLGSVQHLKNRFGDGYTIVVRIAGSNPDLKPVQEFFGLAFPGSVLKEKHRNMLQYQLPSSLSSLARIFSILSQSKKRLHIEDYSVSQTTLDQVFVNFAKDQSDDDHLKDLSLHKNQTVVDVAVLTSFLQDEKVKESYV

Molecule	% cholesterol efflux/8 hours, No cAMP [2]	% cholesterol efflux/8 hours, Plus cAMP [2]	% cholesterol efflux/4 hours at 0.1 µg/ml [3]	% cholesterol efflux/4 hours at 0.3 µg/ml [3]	% cholesterol efflux/4 hours at 1.0 µg/ml [3]	% cholesterol efflux/4 hours at 3.0 µg/ml [3]	% cholesterol efflux/4 hours at 10 µg/ml [3]	% cholesterol efflux/4 hours at 30 µg/ml [3]	% cholesterol efflux/8 hours, No cAMP [4]	% cholesterol efflux/8 hours, Plus cAMP [4]	% cholesterol efflux/4 hours at 0.1 µg/ml [5]	% cholesterol efflux/4 hours at 0.3 µg/ml [5]	% cholesterol efflux/4 hours at 1.0 µg/ml [5]	% cholesterol efflux/4 hours at 3.0 µg/ml [5]	% cholesterol efflux/4 hours at 10 µg/ml [5]	% cholesterol efflux/4 hours at 30 µg/ml [5]	further results
lipid-free apolipoprotein(apo)A-I (from UniProt P02647 19-267) (ligand)	–	–	–	–	–	–	–	–	–	–	–	–	–	–	–	–	Km of cholesterol efflux stimulation, mass basis (4 h efflux data, cAMP-treated J774 cells) [1]: 3.4 µg/mL; Km of cholesterol efflux stimulation, molar basis [1]: 0.12
ELRDKLEAWFDLFREFLERF [N1154-2]	1.47%	3%	0.03%	0.51%	2.17%	2.59%	2.14%	1.66%	–	–	–	–	–	–	–	–	–
ELRDRLEAWFDLFREFLERF [N1154-4]	2.59%	11.4%	0%	1.3%	3.51%	4.14%	5.02%	3.65%	–	–	–	–	–	–	–	–	–
ELRDKLEAWLDLLRELLERL [N1154-8]	–	–	–	–	–	–	–	–	1.31%	4.38%	0%	0.48%	1.51%	3.41%	2.99%	3.02%	–
ELREKLEAWFELFEEFFARFKS [N356-3]	–	–	–	–	–	–	–	–	–	–	–	–	–	–	–	–	% cholesterol efflux/4 hours at 0.1 µg/ml [6]: 0%; % cholesterol efflux/4 hours at 0.3 µg/ml [6]: 0.57%; % cholesterol efflux/4 hours at 1.0 µg/ml [6]: 1.2%; % cholesterol efflux/4 hours at 3.0 µg/ml [6]: 4.34%; % cholesterol efflux/4 hours at 10 µg/ml [6]: 5.13%; % cholesterol efflux/4 hours at 30 µg/ml [6]: 3.24%; % cholesterol efflux/8 hours, No cAMP [7]: 0.82%; % cholesterol efflux/8 hours, Plus cAMP [7]: 3.94%
ELRDRLEAWLDLLRELLERL [N1154-10]	–	–	–	–	–	–	–	–	2.66%	8.25%	0.58%	1%	2.12%	5.25%	4.15%	3.7%	–
ELRERLEAWFELFREFLERF [N1154-1]	1.85%	5.2%	0.1%	0.41%	2.06%	5.11%	4.44%	3.67%	–	–	–	–	–	–	–	–	–
DLRDKLDAWLDLLRDLLDRL [N1154-9]	–	–	–	–	–	–	–	–	1.81%	4.83%	0.08%	0.43%	1.81%	3.48%	3.31%	4.35%	–
DLRDKLDAWFDLFRDFLDRF [N1154-3]	1.61%	3.29%	0%	0.19%	1.31%	2.66%	2.12%	2.21%	–	–	–	–	–	–	–	–	–
DLRDRLDAWLDLLRDLLDRL [N1154-11]	–	–	–	–	–	–	–	–	4.2%	9.04%	0.58%	1.34%	2.56%	4.84%	4.17%	5.55%	–
DLRDRLDAWFDLFRDFLDRF [N1154-5]	3.06%	9.88%	0%	1.92%	2.77%	5.28%	5.29%	3.53%	–	–	–	–	–	–	–	–	–
ELREKLEAWLELLRELLERL [N1154-6]	–	–	–	–	–	–	–	–	1.17%	4.29%	0.18%	0.46%	2.51%	4.73%	3.56%	2.71%	–
ELREKLEAWRELFEEFFARFKS [N356-2]	–	–	–	–	–	–	–	–	–	–	–	–	–	–	–	–	% cholesterol efflux/4 hours at 0.1 µg/ml [6]: 0%; % cholesterol efflux/4 hours at 0.3 µg/ml [6]: 0%; % cholesterol efflux/4 hours at 1.0 µg/ml [6]: 0.02%; % cholesterol efflux/4 hours at 3.0 µg/ml [6]: 1.3%; % cholesterol efflux/4 hours at 10 µg/ml [6]: 5.7%; % cholesterol efflux/4 hours at 30 µg/ml [6]: 5.92%; % cholesterol efflux/8 hours, No cAMP [7]: 1.27%; % cholesterol efflux/8 hours, Plus cAMP [7]: 6.52%
ELREKLEAWFELFREFLERF [SEQ ID NO:2 peptide]	–	–	–	–	–	–	–	–	–	–	–	–	–	–	–	–	efficiency of cholesterol efflux against apoA-I, mass basis [8]: ~5 fold; % cholesterol efflux/8 hours, +cAMP [9]: 5.26%; % cholesterol efflux/8 hours, -cAMP [9]: 2.29%; % cholesterol efflux/4 hours at 0.1 µg/ml [10]: 0.15%; % cholesterol efflux/4 hours at 0.3 µg/ml [10]: 0.52%; % cholesterol efflux/4 hours at 1.0 µg/ml [10]: 1.72%; % cholesterol efflux/4 hours at 3.0 µg/ml [10]: 4.6%; % cholesterol efflux/4 hours at 10 µg/ml [10]: 3.62%; % cholesterol efflux/4 hours at 30 µg/ml [10]: 3.66%
ELRERLEAWLELLRELLERL [N1154-7]	–	–	–	–	–	–	–	–	1.23%	4.14%	0.23%	0.83%	2.26%	4.14%	3.24%	3.28%	–
